Test results as given in publication PMC9034101.

Molecular target: Cy5 N-terminal-labeled WWP2 (human) (UniProt O00308)
Test: MST; 10 nM N-terminal Cy5-labeled WWP2, NDP52 (up to 48 uM) or OPTN (up to 60 uM) in two-fold serial dilution; 25 mM Hepes pH 7.8, 250 mM NaCl, 1 mM TCEP, 0.5 mg/ml BSA, 0.05% Tween-20; room temperature; apparent KD, quadratic model

- Kd: 19 µM
B1: NDP52 (natural protein)
chain: MEETIKDPPTSAVLLDHCHFSQVIFNSVEKFYIPGGDVTCHYTFTQHFIPRRKDWIGIFRVGWKTTREYYTFMWVTLPIDLNNKSAKQQEVQFKAYYLPKDDEYYQFCYVDEDGVVRGASIPFQFRPENEEDILVVTTQGEVEEIEQHNKELCKENQELKDSCISLQKQNSDMQAELQKKQEELETLQSINKKLELKVKEQKDYWETELLQLKEQNQKMSSENEKMGIRVDQLQAQLSTQEKEMEKLVQGDQDKTEQLEQLKKENDHLFLSLTEQRKDQKKLEQTVEQMKQNETTAMKKQQELMDENFDLSKRLSENEIICNALQRQKERLEGENDLLKRENSRLLSYMGLDFNSLPYQVPTSDEGGARQNPGLAYGNPYSGIQESSSPSPLSIKKCPICKADDICDHTLEQQQMQPLCFNCPICDKIFPATEKQIFEDHVFCHSL
